Assay results: publication PMC8967979 (Frontiers in Immunology, 2022)

Biological target: WH01 RBD (residues 333-530) (SARS-CoV-2 Wuhan-Hu-01 (WH01), UniProt P0DTC2)
Test: crystal structure
Conditions: both partners purified

B1: Nb22 (VHH)
VHH: QVQLVESGGNLVQPGGSLRLSCAASGGTLASFAVGWFRQAPGKEREGVSCIDVINRANYADSVKGRFTISRDSAKNTVYLQMNSLEPEDTAVYSCAAHFVPPGSRLRGCLVNELYNYWGQGTQVTVSS
- binding result: binds
